Data on one molecule can be found in PMC8643277.

The target in one series is MBP-NLRP3 deltaPYD (UniProt Q96P20 134-1034). Put plainly: EMSA. Background: In EMSA bound probe runs differently from free probe, usually more slowly.
The next series deals with T1, GFP-NLRP6 monomer (Homo sapiens, UniProt P59044 1-892).
T1 sequence: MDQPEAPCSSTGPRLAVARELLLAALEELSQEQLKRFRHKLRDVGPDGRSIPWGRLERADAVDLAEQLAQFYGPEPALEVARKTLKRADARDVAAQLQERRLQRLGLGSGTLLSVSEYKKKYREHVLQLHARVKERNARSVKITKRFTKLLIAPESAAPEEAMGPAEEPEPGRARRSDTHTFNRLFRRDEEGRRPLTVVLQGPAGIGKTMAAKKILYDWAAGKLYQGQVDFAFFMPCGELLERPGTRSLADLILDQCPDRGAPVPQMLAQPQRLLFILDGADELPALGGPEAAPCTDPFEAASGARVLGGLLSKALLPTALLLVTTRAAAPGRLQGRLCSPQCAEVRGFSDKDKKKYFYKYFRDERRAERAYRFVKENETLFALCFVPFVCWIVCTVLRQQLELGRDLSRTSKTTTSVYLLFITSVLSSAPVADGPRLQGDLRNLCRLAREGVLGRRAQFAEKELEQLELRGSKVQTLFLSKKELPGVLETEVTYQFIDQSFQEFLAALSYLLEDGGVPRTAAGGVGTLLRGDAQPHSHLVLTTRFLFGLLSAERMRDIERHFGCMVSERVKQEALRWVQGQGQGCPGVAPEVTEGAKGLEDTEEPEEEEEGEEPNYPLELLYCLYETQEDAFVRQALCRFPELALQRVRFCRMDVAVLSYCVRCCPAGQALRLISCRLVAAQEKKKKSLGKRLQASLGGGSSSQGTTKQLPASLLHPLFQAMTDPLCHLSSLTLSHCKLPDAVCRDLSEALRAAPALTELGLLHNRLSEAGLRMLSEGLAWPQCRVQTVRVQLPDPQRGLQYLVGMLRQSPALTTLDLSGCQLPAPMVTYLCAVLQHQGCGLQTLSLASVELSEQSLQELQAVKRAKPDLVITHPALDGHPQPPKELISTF
Nature of the series: MST.

Sequence of MBP-NLRP3 deltaPYD (Q96P20 134-1034, stated change not applied): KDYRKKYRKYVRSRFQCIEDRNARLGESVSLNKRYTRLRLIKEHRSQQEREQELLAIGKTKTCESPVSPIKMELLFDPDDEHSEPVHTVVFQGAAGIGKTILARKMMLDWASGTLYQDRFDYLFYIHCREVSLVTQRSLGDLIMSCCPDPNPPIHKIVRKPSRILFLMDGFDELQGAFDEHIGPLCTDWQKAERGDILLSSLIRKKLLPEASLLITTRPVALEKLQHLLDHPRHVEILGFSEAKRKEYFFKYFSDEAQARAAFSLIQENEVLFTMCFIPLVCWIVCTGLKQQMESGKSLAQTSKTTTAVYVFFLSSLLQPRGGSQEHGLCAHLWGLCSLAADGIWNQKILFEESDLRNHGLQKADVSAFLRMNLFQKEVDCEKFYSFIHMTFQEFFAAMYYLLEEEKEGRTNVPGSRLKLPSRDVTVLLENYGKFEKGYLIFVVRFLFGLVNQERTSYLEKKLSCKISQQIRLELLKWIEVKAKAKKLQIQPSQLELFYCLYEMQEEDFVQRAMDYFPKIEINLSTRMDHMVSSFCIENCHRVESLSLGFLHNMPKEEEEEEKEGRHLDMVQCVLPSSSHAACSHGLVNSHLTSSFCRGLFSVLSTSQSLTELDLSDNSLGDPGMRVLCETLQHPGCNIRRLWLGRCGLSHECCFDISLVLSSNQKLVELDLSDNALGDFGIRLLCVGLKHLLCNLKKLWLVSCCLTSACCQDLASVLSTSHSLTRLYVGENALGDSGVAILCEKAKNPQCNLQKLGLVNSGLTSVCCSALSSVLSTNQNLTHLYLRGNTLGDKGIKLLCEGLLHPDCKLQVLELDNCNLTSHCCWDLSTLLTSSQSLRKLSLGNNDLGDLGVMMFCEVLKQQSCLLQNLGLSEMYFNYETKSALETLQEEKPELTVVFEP

B1: 20-bp dsRNA (dsRNA)
RNA 1: GACCUUCUGAUCAGAAGGUC
RNA 2: GACCUUCUGAUCAGAAGGUC
Turning to B1, the binding result with MBP-NLRP3 deltaPYD is “no binding”. Further, the dissociation constant Kd – broadly, the free concentration of one partner at which half of the binding sites on the other are occupied at equilibrium, for simple one-to-one binding – with GFP-NLRP6 monomer is about 1200 nM.
